The results in this text go back to US20260008817A1, “CYCLIC PEPTIDE OR SALT THEREOF, AND USES THEREOF” (FUJIFILM Corporation, priority 2023, published 2026).

Positions of bridges follow the written chain, without caps; N, C: chain ends. No end group written: not given here. COCH2 = acetyl group that carries the bridge

T1 sequence (P11362 with tags, fused parts or gaps limits assumed): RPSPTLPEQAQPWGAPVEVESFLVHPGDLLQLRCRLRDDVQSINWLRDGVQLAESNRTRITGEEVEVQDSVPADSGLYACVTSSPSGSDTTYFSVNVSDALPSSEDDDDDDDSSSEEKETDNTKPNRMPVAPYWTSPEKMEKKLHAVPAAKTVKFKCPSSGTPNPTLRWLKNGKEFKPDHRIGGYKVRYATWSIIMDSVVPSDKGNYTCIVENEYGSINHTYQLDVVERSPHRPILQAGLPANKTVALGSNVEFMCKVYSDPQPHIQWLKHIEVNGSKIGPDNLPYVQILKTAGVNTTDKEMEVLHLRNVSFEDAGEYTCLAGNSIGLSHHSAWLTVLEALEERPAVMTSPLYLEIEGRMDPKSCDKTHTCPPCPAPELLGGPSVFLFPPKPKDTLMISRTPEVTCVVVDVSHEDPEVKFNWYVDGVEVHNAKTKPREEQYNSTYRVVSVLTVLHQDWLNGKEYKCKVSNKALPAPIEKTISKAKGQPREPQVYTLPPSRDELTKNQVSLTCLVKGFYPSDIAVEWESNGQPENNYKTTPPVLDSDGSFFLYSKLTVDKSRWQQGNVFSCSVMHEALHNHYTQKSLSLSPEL

The assay addresses T1, Recombinant Human FGFR1 alpha (IIIc) Fc Chimera Protein (Homo sapiens, UniProt P11362).
T1 construct: purchased R&D systems 658-FR-050
The assay can be described thus: ELISA binding affinity of enzymatically synthesized peptide to FGFR. The following applies: ELISA luminescence signal at 10 nmol/L peptide, SEQ ID NO: 239 standardized to 1; enzyme synthesis product. As to the method: The binding affinity of the peptide to FGFR was evaluated using an ELISA method.
The peptide used for the evaluation was enzymatically synthesized by the following method.
First, a fusion peptide (SEQ ID NO: 25) in which a translation enhancing sequence (SEQ ID NO: 22), a peptide, a Myc tag (SEQ ID NO: 23), and a HiBiT tag (SEQ ID NO: 24) were linked in this order was designed. Next, a template DNA sequence (SEQ ID NO: 26) was designed in which a T7 promoter sequence, a Shine-Dalgarno sequence, a sequence necessary for transcription and translation initiation, such as a start codon (ATG), was provided on the 5′ terminal side of the DNA sequence encoding the fused peptide, and a stop codon group was provided on the 3′ terminal side thereof. In a case where the triplet TAG codon is included in the template DNA sequence, the above-described codon is assigned to the codon of chloroacetylated lysine, and thus, the peptide encoded by the above-described DNA sequence is a cyclic peptide in which a thiol group of cysteine and a chloroacetyl group of chloroacetylated lysine spontaneously form a thioether bond.
The cell-free enzymatic synthesis of the polypeptide was performed in a translation solution containing a template DNA, PUREfrex 2.0 (GeneFrontier, PF201-0.25-5), and Aminoacyl tRNA (1). 1.75 μL ([…]) of the template DNA prepared to 50 ng/μL, 2.5 μL of PUREfrex 2.0 Solution I, 0.25 μL of Solution II, 0.5 μL of Solution III, and a dried product of Aminoacyl tRNA (1) (final concentration: 0.5 ng/μL) were mixed and mixture was subjected to a reaction at 37° C. for 1 hour.
The concentration of the enzymatically synthesized peptide was measured using the peptide diluted with Can Get Signal Immunoreaction Enhancer Solution I (TOYOBO, NKB-101), Nano-Glo HiBiT Lytic Detection System (Promega, N3040), and a chemical synthetic peptide for a calibration curve having a known concentration (SEQ ID NO: 33) according to the standard protocol of the Nano-Glo HiBiT Lytic Detection System.
The binding affinity of the enzymatically synthesized peptide to FGFR was measured by evaluating the amount of the peptide bound to FGFR by ELISA.
First, 5 ng of Recombinant Human FGFR1 alpha (IIIc) Fc Chimera Protein (R&D systems, 658-FR-050) was immobilized in each well of a 96-well plate, and blocked with Pierce Protein-Free (PBS) Blocking Buffer (Thermo, 37572), and a peptide diluted with Can Get Signal Immunoreaction Enhancer Solution I (TOYOBO, NKB-101) was then added and reacted at room temperature for 3 hours. After washing with 0.05% Tween 20-containing phosphate buffered saline (PBS), an anti-Myc antibody (Cell Signaling, 14038S) diluted with Can Get Signal Immunoreaction Enhancer Solution II (TOYOBO, NKB-101) was added and reacted at room temperature for 2 hours. After washing with 0.05% Tween 20-containing PBS, SuperSignal ELISA Femto Substrate (Thermo, 37075) was added, and the luminescence amount was measured. The dose-response relationship was calculated from using the difference between the luminescence amount in the well in which FGFR was immobilized and the luminescence amount in the well in which FGFR was not immobilized, and the concentration of the peptide at the time of reaction, and the binding affinity to FGFR was evaluated according to the following evaluation criteria. The evaluation result preferably satisfies the evaluation criteria A, B, or C.
In a case where a value of a luminescence signal emitted by the cyclic peptide set forth in SEQ ID NO: 239 at a reaction concentration of 10 nmol/L is standardized to 1, evaluation criteria of the luminescence signal value emitted by the peptide at a reaction concentration of 10 nmol/L is as follows. • A: 0.7 or more • B: 0.5 or more and less than 0.7 • C: 0.1 or more and less than 0.5 • D: less than 0.1.
Consider “56 (ICLYTFDAHAHSLHAALTK(COCH2)I; thioether 2-19 (inferred)) [compound 56]”, for which the “Evaluation result of binding affinity to FGFR” value (“Evaluation result” for short) is “B (0.5 or more and less than 0.7)”.

Regarding “57 (ICIYTFDAHAHSLHAALTK(COCH2)I; thioether 2-19 (inferred)) [compound 57]”, the “Evaluation result” value is recorded as “A (0.7 or more)”.

“58 (ICFYTFDAHAHSLHAALTK(COCH2)I; thioether 2-19 (inferred)) [compound 58]”: the “Evaluation result” value was “C (0.1 or more and less than 0.5)”.

Take “59 (ICYYTFDAHAHSLHAALTK(COCH2)I; thioether 2-19 (inferred)) [compound 59]”: the “Evaluation result” value was “C (0.1 or more and less than 0.5)”.

“60 (ICTYTFDAHAHSLHAALTK(COCH2)I; thioether 2-19 (inferred)) [compound 60]”: the “Evaluation result” value is “C (0.1 or more and less than 0.5)”.

For “61 (ICVFTFDAHAHSLHAALTK(COCH2)I; thioether 2-19 (inferred)) [compound 61]”, the “Evaluation result” value is “C (0.1 or more and less than 0.5)”.

As to “62 (ICVWTFDAHAHSLHAALTK(COCH2)I; thioether 2-19 (inferred)) [compound 62]”, the “Evaluation result” value is “C (0.1 or more and less than 0.5)”.

For “63 (ICVHTFDAHAHSLHAALTK(COCH2)I; thioether 2-19 (inferred)) [compound 63]”, the “Evaluation result” value is listed as “A (0.7 or more)”.

On to “64 (ICVYAFDAHAHSLHAALTK(COCH2)I; thioether 2-19 (inferred)) [compound 64]”, for which the “Evaluation result” value was “B (0.5 or more and less than 0.7)”.

For the substance “65 (ICVYGFDAHAHSLHAALTK(COCH2)I; thioether 2-19 (inferred)) [compound 65]”, the “Evaluation result” value was “C (0.1 or more and less than 0.5)”.

As to “66 (ICVYLFDAHAHSLHAALTK(COCH2)I; thioether 2-19 (inferred)) [compound 66]”, the “Evaluation result” value was “C (0.1 or more and less than 0.5)”.

Regarding “67 (ICVYIFDAHAHSLHAALTK(COCH2)I; thioether 2-19 (inferred)) [compound 67]”, the “Evaluation result” value is “C (0.1 or more and less than 0.5)”.

With “68 (ICVYVFDAHAHSLHAALTK(COCH2)I; thioether 2-19 (inferred)) [compound 68]”, the “Evaluation result” value is “C (0.1 or more and less than 0.5)”.

For the substance “69 (ICVYQFDAHAHSLHAALTK(COCH2)I; thioether 2-19 (inferred)) [compound 69]”, the “Evaluation result” value was “B (0.5 or more and less than 0.7)”.

Take “70 (ICVYSFDAHAHSLHAALTK(COCH2)I; thioether 2-19 (inferred)) [compound 70]”: the “Evaluation result” value was “A (0.7 or more)”.

Regarding “71 (ICVYEFDAHAHSLHAALTK(COCH2)I; thioether 2-19 (inferred)) [compound 71]”, the “Evaluation result” value was “C (0.1 or more and less than 0.5)”.

Consider “72 (ICVYRFDAHAHSLHAALTK(COCH2)I; thioether 2-19 (inferred)) [compound 72]”, for which the “Evaluation result” value was “C (0.1 or more and less than 0.5)”.

As for “73 (ICVYHFDAHAHSLHAALTK(COCH2)I; thioether 2-19 (inferred)) [compound 73]”, the “Evaluation result” value was “C (0.1 or more and less than 0.5)”.

For the substance “74 (ICVYTADAHAHSLHAALTK(COCH2)I; thioether 2-19 (inferred)) [compound 74]”, the “Evaluation result” value is “C (0.1 or more and less than 0.5)”.

Consider “75 (ICVYTGDAHAHSLHAALTK(COCH2)I; thioether 2-19 (inferred)) [compound 75]”, for which the “Evaluation result” value was “C (0.1 or more and less than 0.5)”.

With “76 (ICVYTYDAHAHSLHAALTK(COCH2)I; thioether 2-19 (inferred)) [compound 76]”, the “Evaluation result” value was “B (0.5 or more and less than 0.7)”.

For “77 (ICVYTWDAHAHSLHAALTK(COCH2)I; thioether 2-19 (inferred)) [compound 77]”, the “Evaluation result” value is “B (0.5 or more and less than 0.7)”.

Take “78 (ICVYTSDAHAHSLHAALTK(COCH2)I; thioether 2-19 (inferred)) [compound 78]”: the “Evaluation result” value was “C (0.1 or more and less than 0.5)”.

For “79 (ICVYTHDAHAHSLHAALTK(COCH2)I; thioether 2-19 (inferred)) [compound 79]”, the “Evaluation result” value was “C (0.1 or more and less than 0.5)”.

Regarding “80 (ICVYTFAAHAHSLHAALTK(COCH2)I; thioether 2-19 (inferred)) [compound 80]”, the “Evaluation result” value is “C (0.1 or more and less than 0.5)”.

“81 (ICVYTFGAHAHSLHAALTK(COCH2)I; thioether 2-19 (inferred)) [compound 81]”: the “Evaluation result” value was “C (0.1 or more and less than 0.5)”.

Turning to “82 (ICVYTFPAHAHSLHAALTK(COCH2)I; thioether 2-19 (inferred)) [compound 82]”, the “Evaluation result” value was “C (0.1 or more and less than 0.5)”.

Consider “83 (ICVYTFVAHAHSLHAALTK(COCH2)I; thioether 2-19 (inferred)) [compound 83]”, for which the “Evaluation result” value was “C (0.1 or more and less than 0.5)”.

On to “84 (ICVYTFFAHAHSLHAALTK(COCH2)I; thioether 2-19 (inferred)) [compound 84]”, for which the “Evaluation result” value is “C (0.1 or more and less than 0.5)”.

Consider “85 (ICVYTFYAHAHSLHAALTK(COCH2)I; thioether 2-19 (inferred)) [compound 85]”, for which the “Evaluation result” value is “C (0.1 or more and less than 0.5)”.

In the case of “86 (ICVYTFWAHAHSLHAALTK(COCH2)I; thioether 2-19 (inferred)) [compound 86]”, the “Evaluation result” value was “C (0.1 or more and less than 0.5)”.

For “87 (ICVYTFNAHAHSLHAALTK(COCH2)I; thioether 2-19 (inferred)) [compound 87]”, the “Evaluation result” value is listed as “A (0.7 or more)”.

Take “88 (ICVYTFSAHAHSLHAALTK(COCH2)I; thioether 2-19 (inferred)) [compound 88]”: the “Evaluation result” value was “C (0.1 or more and less than 0.5)”.

On to “89 (ICVYTFDGHAHSLHAALTK(COCH2)I; thioether 2-19 (inferred)) [compound 89]”, for which the “Evaluation result” value was “B (0.5 or more and less than 0.7)”.

Take “90 (ICVYTFDPHAHSLHAALTK(COCH2)I; thioether 2-19 (inferred)) [compound 90]”: the “Evaluation result” value is “B (0.5 or more and less than 0.7)”.

For “91 (ICVYTFDLHAHSLHAALTK(COCH2)I; thioether 2-19 (inferred)) [compound 91]”, the “Evaluation result” value was “C (0.1 or more and less than 0.5)”.

In the case of “92 (ICVYTFDIHAHSLHAALTK(COCH2)I; thioether 2-19 (inferred)) [compound 92]”, the “Evaluation result” value was “C (0.1 or more and less than 0.5)”.

“93 (ICVYTFDVHAHSLHAALTK(COCH2)I; thioether 2-19 (inferred)) [compound 93]”: the “Evaluation result” value was “C (0.1 or more and less than 0.5)”.

With “94 (ICVYTFDYHAHSLHAALTK(COCH2)I; thioether 2-19 (inferred)) [compound 94]”, the “Evaluation result” value is “C (0.1 or more and less than 0.5)”.
